The values that follow come from patent US5316947A, “Synthetic isohirudins with improved stability” (Hoechst Aktiengesellschaft, priority 1991, dated 1994).

Numbering of substitutions follows the chain as printed.

One data set deals with thrombin (Homo sapiens, UniProt P00734). As to the kind of experiment: Comparative Ki value determination on optimized isohirudins (method of Stone and Hofsteenge, chromogenic substrate D-HHT-Gly-Arg-pNA). Type of data set: biochemical. The following applies: 25° C., pH 8.3, 0.1 M tris, 0.2 M NaCl, 0.1% Triton X-100; Ki = koff/kon; read-out: Ki(app.). How it is done: Ki values were determined by the method of Stone and Hofsteenge (Biochemistry 25, pages 4622-4628, 1986): 0.2 ml of a 1.25 mM solution of D-HHT-Gly-Arg-pNA was equilibrated at 25° C. with 1.7 ml of 0.1 M tris, 0.2 M NaCl and 0.1% (v/v) Triton X-100 pH 8.3 and 0.1 ml of the isohirudin to be tested in 145 mM NaCl. Binding was started by adding 0.05 ml of thrombin solution. The absorption at 405 nm was recorded for a period of 10-20 min.
The reaction follows the equation:
[P]=vs *t+(vo -v5)(1-e^-k*t)/k+d,
[P]=product concentration (nitroaniline) […]
vs =reaction rate in the equilibrium state
The rate constant k was determined by non-linear regression. Extrapolation of k at various inhibitor concentrations to [1]=0 according to […]
yields the rate constants kon and koff and thus Ki =koff /kon.

Data set [1] is described as follows: Time course of byproduct formation of desulfatohirudin analogs at pH 6.5 and pH 4, 60° C. (FIG. 4 and FIG. 3). The following applies: 1 mg/ml in water, pH 4 (FIG. 3) and pH 6.5 (FIG. 4), up to 96 h. Type of data set: physicochemical. How it is done:
The purified isohirudins, as lyophilisate, were dissolved at 1 mg/ml in water and adjusted to pH 6.5 with 1 M […]. After sterilization by filtration, […]. Samples were taken at times t=0, 5, 24, 48, 72 and 96 h and analyzed by RP HPLC (Nucleosil®) and ion exchange chromatography (Mono®) for the content of byproducts therein. The purity at time t=x is shown relative to the purity at t=0, with in each case the less favorable value from the two analysis systems being used as bases (FIG. 4).
The purified isohirudins, as lyophilisate, were dissolved at 1 mg/ml in water and adjusted to pH 4 with 1 M acetic acid. Incubation and analyses were carried out as in Example 10 (FIG. 3).

Data set [2] is described as follows: 20-hour stability of [Ala1,Thr2] desulfatohirudin analogs at pH 7 and 60° C. (RP HPLC and anion exchange chromatography). It counts as physicochemical. To be noted: stress conditions: 20 h, 0.5 mg/ml in 20 mM NaP, 300 mM NaCl. How it is done:
The compound to be tested was dissolved in 0.5 mg/ml in 20 mM NaP, pH 7, 300 mM NaCl and incubated at 60° C. for 20 h. Samples were taken at times t=0 and t=20 h and analyzed by RP HPLC (Nucleosil®) and anionic exchange chromatography (Mono Q®). The content of newly formed byproducts was calculated.

“[Leu^1,Thr^2 ] desulfatohirudin [reference compound]”: the Ki at thrombin was determined as 0.14 nM.
In the case of “[Ala^1,Thr^2,Glu^33,Glu^53 ] desulfatohirudin”, in data set [1], the “Stability (byproduct formation over time)” value is given as “simple exchange of the aspartic acid does not have the optimal effect”. The Ki with thrombin worked out at 0.37 nM.
Regarding “[Ala^1,Thr^2 ] desulfatohirudin [reference compound]”, the Ki at thrombin was 0.2 nM. Further, in data set [2], the “% newly formed byproducts” value was 23.0%.
With “[Ile^1,Thr^2 ] desulfatohirudin [reference compound]”, the Ki on thrombin stood at 0.61 nM.

B1: [Ala^1 Thr^2,Glu^33,Ala^54 ] desulfatohirudin (protein)
chain: ATYTDCTESGQNLCLCEGSNVCGQGNKCILGSEGEKNQCVTGEGTPKPQSHNDADFEEIPEEYLQ
modifications: ends and bridges not checked
With B1, the Ki in the data set with thrombin was 0.35 nM.

B2: [Ala^1,Thr^2,Glu^33,Gln^52,Glu^53,Ala^54 ]-desulfatohirudin (protein)
chain: B1 chain with N52Q, D53E
modifications: ends and bridges not checked
In the case of B2, in data set [1], the “Stability (byproduct formation over time)” value is on record as “superior stability”. The Ki with thrombin worked out at 0.31 nM.

B3: [Ala^1,Thr^2,Glu^33,Gln^52,Glu^53,Glu^55 ]-desulfatohirudin (protein)
chain: B1 chain with N52Q, D53E, A54G, D55E
modifications: ends and bridges not checked
In the case of B3, the “Stability (byproduct formation over time)” value in data set [1] is recorded as “superior stability”. Also, the Ki with thrombin came to 0.3 nM. In data set [2], the “% newly formed byproducts” value is reported as 3.2%.

B4: [Ala^1,Thr^2,Gln^52,Glu^53,Glu^55 ] desulfatohirudin (protein)
chain: B1 chain with E33D, N52Q, D53E, A54G, D55E
modifications: ends and bridges not checked
As to B4, the Ki with thrombin is 0.19 nM. In data set [2], the “% newly formed byproducts” value is reported as 14.6%.

B5: [Ala^1,Thr^2,Glu^53 ] desulfatohirudin (protein)
chain: B1 chain with E33D, D53E, A54G
modifications: ends and bridges not checked
Consider B5, for which, in the data set with thrombin, the Ki was determined as 0.38 nM.

B6: [Ala^1,Thr^2,Gln^52,Glu^53,Ala^54 ] desulfatohirudin (protein)
chain: B1 chain with E33D, N52Q, D53E
modifications: ends and bridges not checked
Take B6: the Ki in the data set with thrombin was found to be 0.22 nM.

B7: [Ala^1,Thr^2,Glu^33 ] desulfatohirudin (protein)
chain: B1 chain with A54G
modifications: ends and bridges not checked
With B7, in the data set with thrombin, the Ki is 0.16 nM. Also, the “% newly formed byproducts” value in data set [2] is on record as 15.2%.

B8: [Ala^1,Thr^2,Ala^54 ] desulfatohirudin (protein)
chain: B1 chain with E33D
modifications: ends and bridges not checked
B8: the Ki with thrombin came out at 0.27 nM.
